# Test results taken from the supplement of paper PMC7125110.
# ± gives the standard error. Fewer inactive variants are shown than the library holds.
# B1: glmS ribozyme (parent)
# chain: AUAAAAGCGCCAGAACUACAGAAAUGUAGUUGACGAGGAGGAGGUUUAUCGAAUUUUCGGCGGAUGCCUCCAAA
# Variants of: B1
# Test: self-cleavage kobs at 10000 uM GlcN6P; higher = faster cleavage; RNA array
# Conditions: with glucosamine-6-phosphate
# Procedure, shortened: (§1)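 E. coli RNA polymerase transcribed barcoded ribozyme variants in situ on sequenced MiSeq chips, which were tracked via a hybridised Cy3 probe at 37 °C. Tiles were imaged over ~14 h after glucosamine-6-phosphate (40 μM to 10 mM) in HEPES/KCl/Mg(OAc)2 buffer was flowed in. Normalised per-tile medians were fit to one- or two-exponential decays for kobs, and kcat and KM came from weighted Michaelis–Menten fits.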
row,Variant,self-cleavage kobs at 10000 uM GlcN6P
1,A12U U54C G59U A64C,< 1e-05 s⁻¹
2,A12C G37A U47G,0.000241 ± 4.8e-05 s⁻¹
3,A15C U30G C68G,0.000435 ± 0.00015 s⁻¹
4,A15G U30G U46C,0.000407 ± 0.0001 s⁻¹
5,C8A U56C C70G,< 1e-05 s⁻¹
6,A12U C16A C58A,7.98e-05 ± 1.6e-05 s⁻¹
7,C8A A36U C61G G66A,< 1e-05 s⁻¹
8,C10U A39C C61U C68G,< 1e-05 s⁻¹
9,A15U G32C C71U,8.58e-05 ± 2e-05 s⁻¹
10,G13A G35A G60U C70A,< 1e-05 s⁻¹
11,A12C A14G U47A A53G C58U,3.29e-05 ± 1.6e-05 s⁻¹
12,C16A U31C U55A,0.000194 ± 3.1e-05 s⁻¹
13,C8G C50G C70G,0.000104 ± 2.2e-05 s⁻¹
14,C10A G63U C71U,< 1e-05 s⁻¹
15,C16A G35C A39U,< 1e-05 s⁻¹
16,A12C U57G,5.46e-05 ± 1.2e-05 s⁻¹
17,A15C A33G A48C A64U,< 1e-05 s⁻¹
18,G13U U55G C67U,0.0003 ± 6.1e-05 s⁻¹
19,C16A A33C A42C C71U,< 1e-05 s⁻¹
20,A6G U30G C68G,< 1e-05 s⁻¹
21,G7U G26U A52C,< 1e-05 s⁻¹
22,A6C C16U G38U U49G G51U G59C U65A,< 1e-05 s⁻¹
23,A6U U55A C70U,0.000254 ± 6.5e-05 s⁻¹

row,Variant,self-cleavage kobs at 10000 uM GlcN6P
1,G13U A39U C71U,0.000606 ± 0.00012 s⁻¹
2,G7U G29U G37U,< 1e-05 s⁻¹
3,C16G G35C C58U,< 1e-05 s⁻¹
4,G9U A15U C34A C58G,< 1e-05 s⁻¹
5,C8G G43A G44A C67A C70G,< 1e-05 s⁻¹
6,A6G A12U C16U,5.43e-05 ± 2.1e-05 s⁻¹
7,A15C G29C G59A U65A,< 1e-05 s⁻¹
8,A15U G37A U47A C67G C70G,< 1e-05 s⁻¹
9,A6U A36U A42C U65C,< 1e-05 s⁻¹
10,G9A A33C C50G A52G G59U C71A,5.24e-05 ± 2e-05 s⁻¹
11,A12G A15U U31G,0.000128 ± 2.3e-05 s⁻¹
12,A6C G32A G43U,< 1e-05 s⁻¹
13,C16A A36C U57A C61U C67U,< 1e-05 s⁻¹
14,G9A A15C C67A,< 1e-05 s⁻¹
15,C11U C50A G66A,< 1e-05 s⁻¹
16,G7U A14U G29C,< 1e-05 s⁻¹
17,C11A U47C U55A G59U,0.00336 ± 0.00065 s⁻¹
18,A12G G13C G35A,< 1e-05 s⁻¹
19,A15C U30C G62U,< 1e-05 s⁻¹
20,A14G U56C U69C,0.000368 ± 9.1e-05 s⁻¹
21,G13A A42C G60C,< 1e-05 s⁻¹
22,C11U G32U C61G U69C,0.00014 ± 3.4e-05 s⁻¹
23,A6U U54C C71U,0.000136 ± 2.2e-05 s⁻¹

row,Variant,self-cleavage kobs at 10000 uM GlcN6P
1,A15G G66C C68U,0.000127 ± 2.6e-05 s⁻¹
2,C16A U31A C70U,0.00113 ± 0.00026 s⁻¹
3,G13U G43U A64U,< 1e-05 s⁻¹
4,G7A C8U U56C,< 1e-05 s⁻¹
5,A12U A33C U47C C67G,< 1e-05 s⁻¹
6,C11U C34G G38A,< 1e-05 s⁻¹
7,A15U G43A G44C U45G,< 1e-05 s⁻¹
8,A14G A42U A52G,6.3e-05 ± 1.1e-05 s⁻¹
9,A6C U31G G41C U54A U55C C68U,< 1e-05 s⁻¹
10,A15U G32U G66A,0.000174 ± 4e-05 s⁻¹
11,A12G U30A C34U U45G C67A,< 1e-05 s⁻¹
12,A12U A64U C67U,0.00017 ± 3e-05 s⁻¹
13,G7U C8U A12G C70G,4.36e-05 ± 1.9e-05 s⁻¹
14,C11A G35C G41C,< 1e-05 s⁻¹
15,A15C U46C G62U,< 1e-05 s⁻¹
16,G7A G40C A42U G43U U57C,< 1e-05 s⁻¹
17,G13A C71A,0.000168 ± 3.3e-05 s⁻¹
18,C11A A15C U54G,5.7e-05 ± 1.8e-05 s⁻¹
19,G13C G38A G43C C61U,< 1e-05 s⁻¹
20,A6G C11U C34A,< 1e-05 s⁻¹
21,A12U C50G A52C C70G,7.94e-05 ± 2.3e-05 s⁻¹
22,A14C C50G G62U C67G,6.05e-05 ± 1.8e-05 s⁻¹
23,A6U A33G G43C G60U,< 1e-05 s⁻¹

row,Variant,self-cleavage kobs at 10000 uM GlcN6P
1,G7U C16A G62A,< 1e-05 s⁻¹
2,A6C A14G A64G,0.000191 ± 3.2e-05 s⁻¹
3,G7A C16U,2.32e-05 ± 1.2e-05 s⁻¹
4,A12C G60U C61U,< 1e-05 s⁻¹
5,G9U A14U,< 1e-05 s⁻¹
6,G13U A14C C58G,7.6e-05 ± 1.7e-05 s⁻¹
7,C10A U46A A48G,< 1e-05 s⁻¹
8,A14U G37U A48G U49C C71U,< 1e-05 s⁻¹
9,C11G A15U C50A G51U C70A,4.33e-05 ± 1.2e-05 s⁻¹
10,C11U G66U C71G,< 1e-05 s⁻¹
11,C16G A33U G35U G63U A64C,< 1e-05 s⁻¹
12,A12U C16A U65C,5.77e-05 ± 1.6e-05 s⁻¹
13,C11G G66C,< 1e-05 s⁻¹
14,C8G A14U A52C G59C C71U,< 1e-05 s⁻¹
15,C8U U54A U55A C67G,0.000463 ± 0.00023 s⁻¹
16,G9U U31G C34U G59U,< 1e-05 s⁻¹
17,A12C U56G C70G,5.35e-05 ± 1.3e-05 s⁻¹
18,A12U G32U U54C,0.000319 ± 5.4e-05 s⁻¹
19,A12C U46C G51U U54A,< 1e-05 s⁻¹
20,A14G G32C G40U A42G,6.25e-05 ± 2.1e-05 s⁻¹
21,A12C C16G G37A C67A C71U,< 1e-05 s⁻¹
22,C11G U25C A53U A64U,< 1e-05 s⁻¹
23,A15G U54C C71G,0.000924 ± 0.00024 s⁻¹

row,Variant,self-cleavage kobs at 10000 uM GlcN6P
1,C10G A48G G51C,< 1e-05 s⁻¹
2,C11G G32U A39C,< 1e-05 s⁻¹
3,C11U A15U A42U,< 1e-05 s⁻¹
4,G7A U57C,< 1e-05 s⁻¹
5,A14C G60U C70A,< 1e-05 s⁻¹
6,A12G C61A,< 1e-05 s⁻¹
7,A12U A48C U49C C50A C68U,< 1e-05 s⁻¹
8,A14U A15C G32A A42U A53U C70U,< 1e-05 s⁻¹
9,G13A A42U U49G C58U,< 1e-05 s⁻¹
10,A15G C50G C68A,7.87e-05 ± 1.6e-05 s⁻¹
11,C8A C58U U69G,0.0005 ± 8.7e-05 s⁻¹
12,A6C U31A A64C C71G,< 1e-05 s⁻¹
13,C11U G29C C71U,0.000101 ± 1.9e-05 s⁻¹
14,A15U U49A A52G,< 1e-05 s⁻¹
15,C11A U30C A39C G59U,0.000272 ± 6.2e-05 s⁻¹
16,C11G G13C G44A,< 1e-05 s⁻¹
17,G13U G37A G40U,< 1e-05 s⁻¹
18,G9A U30A C70A,< 1e-05 s⁻¹
19,A1U U2G A3G A5U G44A,4.04e-05 ± 1.7e-05 s⁻¹
20,G13C U47G C70U,5.23e-05 ± 1.4e-05 s⁻¹
21,C16A U55A C67G,5.54e-05 ± 1.9e-05 s⁻¹
22,A14U G51A U57C,< 1e-05 s⁻¹
23,A6C C8U A36C G37U,< 1e-05 s⁻¹

row,Variant,self-cleavage kobs at 10000 uM GlcN6P
1,G9C G63A C68G,< 1e-05 s⁻¹
2,A6G C11A C34U C58U C68G,0.000295 ± 0.0001 s⁻¹
3,C8U G29U G32C G35C A36U C50A A52U,< 1e-05 s⁻¹
4,G9U G59C G63C,< 1e-05 s⁻¹
5,C16G A42G C71U,0.00126 ± 0.00039 s⁻¹
6,C11U A36C G43U,< 1e-05 s⁻¹
7,A15G U31C G38C G63A,< 1e-05 s⁻¹
8,A14U A39C G66U,0.000116 ± 2.2e-05 s⁻¹
9,C8U C16A A39C A42C G59C C67A C70U,< 1e-05 s⁻¹
10,C16A U49G,2.8e-05 ± 1.1e-05 s⁻¹
11,C10U C58U G59C,< 1e-05 s⁻¹
12,A14U A52U U54C,0.000114 ± 1.6e-05 s⁻¹
13,C8G U30G G40A,< 1e-05 s⁻¹
14,A12C A64U,3.59e-05 ± 5.3e-06 s⁻¹
15,A6G U47A,0.000437 ± 0.00013 s⁻¹
16,A14G A36C A42U,< 1e-05 s⁻¹
17,A12G G13U G40A,4.65e-05 ± 1.4e-05 s⁻¹
18,A12C U69A C71U,4.87e-05 ± 1.6e-05 s⁻¹
19,A14G A33U A39U,4.23e-05 ± 1.4e-05 s⁻¹
20,G7U A15U C70G,3.63e-05 ± 1.7e-05 s⁻¹
21,G9C A36C G43A U47A,< 1e-05 s⁻¹
22,C10A U45A A52U,< 1e-05 s⁻¹
23,C8U U54A U69A,0.00115 ± 0.00055 s⁻¹

row,Variant,self-cleavage kobs at 10000 uM GlcN6P
1,G9A A53G G66U,< 1e-05 s⁻¹
2,A12C C16U A52U,0.000334 ± 6.5e-05 s⁻¹
3,C16G A33G C58G,< 1e-05 s⁻¹
4,G9C C50U A64U,< 1e-05 s⁻¹
5,G9U U30A C71U,< 1e-05 s⁻¹
6,G13A G38A A64G,< 1e-05 s⁻¹
7,A14C U65C C71U,4.99e-05 ± 2.1e-05 s⁻¹
8,C11G U30C A42C U55G C61A G62A C71G,< 1e-05 s⁻¹
9,C8U U47G G63A C70A,0.000324 ± 0.00012 s⁻¹
10,A12U A14C U31C,0.00145 ± 0.00047 s⁻¹
11,A14U A53U C68U,0.00114 ± 0.00036 s⁻¹
12,A14C A39U A53G,0.00135 ± 0.0004 s⁻¹
13,C10A U31C G38U A48C,< 1e-05 s⁻¹
14,A6U U45G C67A,4.59e-05 ± 1.8e-05 s⁻¹
15,C11U G32U U45G C61G,< 1e-05 s⁻¹
16,C11U G40A A52C G62C,< 1e-05 s⁻¹
17,G13A C34G A52C,< 1e-05 s⁻¹
18,A14C A42G C61A,< 1e-05 s⁻¹
19,C10G G37A G60U,< 1e-05 s⁻¹
20,C8U U46G G66C C70G,9.08e-05 ± 2.6e-05 s⁻¹
21,C8U G37C C50G A53U C67A,0.000441 ± 0.00011 s⁻¹

# Variants of: B1
# Test: self-cleavage kobs at 2500 uM GlcN6P; higher = faster cleavage; RNA array
# Conditions: with glucosamine-6-phosphate
# Procedure, shortened: as §1
row,Variant,self-cleavage kobs at 2500 uM GlcN6P
1,U69C C70U C71G,3.82e-05 ± 1.3e-05 s⁻¹
2,U65A C67G C71U,3.53e-05 ± 1.5e-05 s⁻¹
3,C58G G59C C61A G62A C71A,< 1e-05 s⁻¹
4,G62C A64G C70A,< 1e-05 s⁻¹
5,U57A C61G C70G,3.93e-05 ± 1.9e-05 s⁻¹
6,C61U G63C C71U,< 1e-05 s⁻¹
7,G66U C68U C71G,5.06e-05 ± 2.1e-05 s⁻¹
8,A64G C68G C71G,0.000122 ± 3.9e-05 s⁻¹
